# US11278600B2, “Human alpha-galactosidase variants” (Codexis, Inc., priority 2014, dated 2022)
# Numbering of substitutions follows the chain as printed.
# B1: 300 (protein)
# chain: LDNGLARTPTMGWLHWERFMCNLDCQEEPDSCISEKLFMEMAELMVSEGWKDAGYEYLCIDDCWMAPQRDSEGRLQADPQRFPHGIRQLANYVHSKGLKLGIYADVGNKTCAGFPGSFGYYDIDAQTFADWGVDLLKFDGCYCDSLENLADGYKHMSLALNRTGRSIVYSCEWPLYMWPFQKPNYTEIRQYCNHWRNFADIDDSWASVKSILDWTSFNQETIVDVAGPGGWNDPDMLVIGNFGLSWDQQVTQMALWAIMAAPLFMSNDLRHISPQAKALLQDKDVIAINQDPLGKQGYQLRQGDNFEVWERPLSGLAWAVAVINRQEIGGPRSYTIAVASLGGGVACNPACFITQLLPVKRKLGFYNWTSRLKSHINPTGTVLLQLENTMQMSLKDLL
# modifications: Synthetic Polypeptide sequence of Variant No. 300 of mature Human GLA
# B2: 301 (protein)
# chain: B1 chain with V208I, T221R, D247N, V322I, G343K
# modifications: Synthetic Polypeptide sequence of Variant No. 301 of mature Human GLA
# B3: 303 (protein)
# chain: B1 chain with V208I, T221R, V322I, A337E, G343D, F365L, I376V
# modifications: Synthetic Polypeptide sequence of Variant No. 303 of mature Human GLA
# B4: 309 (protein)
# chain: B1 chain with K96I, V208I, F217R, T221R, Q302K, V322I, A337P, A350G
# modifications: Synthetic Polypeptide sequence of Variant No. 309 of mature Human GLA
# B5: 308 (protein)
# chain: B1 chain with K96I, V208I, F217R, T221R, D247N, V322I, G343K, T369S
# modifications: Synthetic Polypeptide sequence of Variant No. 308 of mature Human GLA
# B6: 304 (protein)
# chain: B1 chain with V208I, T221R, D247N, Q302K, L316D, V322I, A337P, G343K, A350G, K362Q
# modifications: Synthetic Polypeptide sequence of Variant No. 304 of mature Human GLA
# B7: 305 (protein)
# chain: B1 chain with V208I, T221R, D247N, Q302K, L316D, V322I, A337P, G343K, T369S
# modifications: Synthetic Polypeptide sequence of Variant No. 305 of mature Human GLA
# B8: 302 (protein)
# chain: B1 chain with V208I, T221R, D247N
# modifications: Synthetic Polypeptide sequence of Variant No. 302 of mature Human GLA
# B9: 312 (protein)
# chain: B1 chain with K96I, V208I, T221R, Q302K, L316D, V322I, A337P, G343K, A350G, K362Q
# modifications: Synthetic Polypeptide sequence of Variant No. 312 of mature Human GLA
# B10: 310 (protein)
# chain: B1 chain with K96I, V208I, T221R, V322I, G343K, A350G, T369S
# modifications: Synthetic Polypeptide sequence of Variant No. 310 of mature Human GLA
# B11: 307 (protein)
# chain: B1 chain with V208I, T221K, D247N, Q302K, V322I, T369S, I376V
# modifications: Synthetic Polypeptide sequence of Variant No. 307 of mature Human GLA
# B12: 311 (protein)
# chain: B1 chain with K96I, V208I, T221R, Q302K, L316D, V322I, A337P, G343K, A350G, T369S
# modifications: Synthetic Polypeptide sequence of Variant No. 311 of mature Human GLA
# B13: 306 (protein)
# chain: B1 chain with V208I, T221K, Q302K, V322I, G343K
# modifications: Synthetic Polypeptide sequence of Variant No. 306 of mature Human GLA
# Experiments:
# Format in all cases: biochemical
# [1] = HTP-analysis of supernatants pretreated with bovine serum (MUGal hydrolysis); conditions: activity of the variant/activity of Rd3BB (SEQ ID NO: 13), yeast culture supernatant
# In short: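 Yeast INVSc1 culture supernatants containing secreted GLA variants were mixed with bovine serum (20:80) and held 1 h at 37° C. Serum-treated samples then reacted with MUGal (4 mM stock) in citrate/McIlvaine buffer (pH 4.3/4.8) for 180 min at 37° C., were quenched with sodium carbonate, and read by fluorescence (Ex 355, Em 448 nm).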
# [2] = HTP-analysis of yeast culture supernatants, no challenge (MUGal hydrolysis); conditions: activity of the variant/activity of Rd3BB (SEQ ID NO: 13), yeast culture supernatant
# In short: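 Activity read as 4-methylumbelliferyl α-D-galactopyranoside hydrolysis: fluorescence (355/448 nm) after sodium carbonate stop, following 30-180 min at 37° C with 2 mM MUGal stock at pH 4.6–4.8. Enzyme source is unchallenged culture supernatant of INVSc1 yeast expressing GLA variants, grown 66-84 h at 30° C.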
# [3] = HTP-analysis of supernatants pretreated with acid (MUGal hydrolysis); conditions: challenge at pH 4.0; activity of the variant/activity of Rd3BB (SEQ ID NO: 13); yeast culture supernatant
# In short: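 Supernatants from INVSc1 yeast secreting GLA variants were challenged at 37° C. for 1-3 h in McIlvaine buffer at pH 3.3-4.3. Residual activity was then measured on 4 mM MUGal substrate stock at pH 4.8 with citrate buffer pH 4.3, over 30-180 min at 37° C. Reactions were quenched with sodium carbonate and read by fluorescence (Ex 355/Em 448 nm).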
# [4] = HTP-analysis of supernatants pretreated with base (MUGal hydrolysis); conditions: challenge at pH 8.2; activity of the variant/activity of Rd3BB (SEQ ID NO: 13); yeast culture supernatant
# In short: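 Fluorescence of released 4-MU (Ex 355 nm, Em 448 nm) after carbonate quench reports MUGal hydrolysis by GLA variants secreted from INVSc1 yeast. Before the acidic (pH 4.3-4.8) 30-180 min reaction at 37° C, supernatants had been pre-incubated at pH 7.0-9.7 for 1-18 h at 37° C.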
Molecule,Relative Activity of GLA Variants After Challenge with Serum [1],Relative Activity of GLA Variants After No Challenge (NC) [2],Relative Activity of GLA Variants After Challenge at pH 4.0 [3],Relative Activity of GLA Variants After Challenge at pH 8.2 [4]
B1,++ (++ = >1.5 to 2.5 relative activity over Rd3BB (SEQ ID NO: 13)),+ (+ = 0.5 to 1.5 relative activity over Rd3BB (SEQ ID NO: 13)),++ (++ = >1.5 to 2.5 relative activity over Rd3BB (SEQ ID NO: 13)),++ (++ = >1.5 to 2.5 relative activity over Rd3BB (SEQ ID NO: 13))
B2,− (− = <0.5 relative activity to Rd3BB (SEQ ID NO: 13)),+ (+ = 0.5 to 1.5 relative activity over Rd3BB (SEQ ID NO: 13)),+ (+ = 0.5 to 1.5 relative activity over Rd3BB (SEQ ID NO: 13)),+ (+ = 0.5 to 1.5 relative activity over Rd3BB (SEQ ID NO: 13))
B3,+ (+ = 0.5 to 1.5 relative activity over Rd3BB (SEQ ID NO: 13)),++ (++ = >1.5 to 2.5 relative activity over Rd3BB (SEQ ID NO: 13)),++ (++ = >1.5 to 2.5 relative activity over Rd3BB (SEQ ID NO: 13)),++ (++ = >1.5 to 2.5 relative activity over Rd3BB (SEQ ID NO: 13))
B4,++ (++ = >1.5 to 2.5 relative activity over Rd3BB (SEQ ID NO: 13)),+ (+ = 0.5 to 1.5 relative activity over Rd3BB (SEQ ID NO: 13)),++ (++ = >1.5 to 2.5 relative activity over Rd3BB (SEQ ID NO: 13)),+++ (+++ = >2.5 relative activity over Rd3BB (SEQ ID NO: 13))
B5,+ (+ = 0.5 to 1.5 relative activity over Rd3BB (SEQ ID NO: 13)),− (− = <0.5 relative activity to Rd3BB (SEQ ID NO: 13)),− (− = <0.5 relative activity to Rd3BB (SEQ ID NO: 13)),− (− = <0.5 relative activity to Rd3BB (SEQ ID NO: 13))
B6,++ (++ = >1.5 to 2.5 relative activity over Rd3BB (SEQ ID NO: 13)),++ (++ = >1.5 to 2.5 relative activity over Rd3BB (SEQ ID NO: 13)),++ (++ = >1.5 to 2.5 relative activity over Rd3BB (SEQ ID NO: 13)),++ (++ = >1.5 to 2.5 relative activity over Rd3BB (SEQ ID NO: 13))
B7,++ (++ = >1.5 to 2.5 relative activity over Rd3BB (SEQ ID NO: 13)),+ (+ = 0.5 to 1.5 relative activity over Rd3BB (SEQ ID NO: 13)),+ (+ = 0.5 to 1.5 relative activity over Rd3BB (SEQ ID NO: 13)),+ (+ = 0.5 to 1.5 relative activity over Rd3BB (SEQ ID NO: 13))
B8,+ (+ = 0.5 to 1.5 relative activity over Rd3BB (SEQ ID NO: 13)),+ (+ = 0.5 to 1.5 relative activity over Rd3BB (SEQ ID NO: 13)),+ (+ = 0.5 to 1.5 relative activity over Rd3BB (SEQ ID NO: 13)),+ (+ = 0.5 to 1.5 relative activity over Rd3BB (SEQ ID NO: 13))
B9,+++ (+++ = >2.5 relative activity over Rd3BB (SEQ ID NO: 13)),++ (++ = >1.5 to 2.5 relative activity over Rd3BB (SEQ ID NO: 13)),+++ (+++ = >2.5 relative activity over Rd3BB (SEQ ID NO: 13)),+++ (+++ = >2.5 relative activity over Rd3BB (SEQ ID NO: 13))
B10,+ (+ = 0.5 to 1.5 relative activity over Rd3BB (SEQ ID NO: 13)),− (− = <0.5 relative activity to Rd3BB (SEQ ID NO: 13)),+ (+ = 0.5 to 1.5 relative activity over Rd3BB (SEQ ID NO: 13)),+ (+ = 0.5 to 1.5 relative activity over Rd3BB (SEQ ID NO: 13))
B11,+ (+ = 0.5 to 1.5 relative activity over Rd3BB (SEQ ID NO: 13)),+ (+ = 0.5 to 1.5 relative activity over Rd3BB (SEQ ID NO: 13)),+ (+ = 0.5 to 1.5 relative activity over Rd3BB (SEQ ID NO: 13)),+ (+ = 0.5 to 1.5 relative activity over Rd3BB (SEQ ID NO: 13))
B12,+ (+ = 0.5 to 1.5 relative activity over Rd3BB (SEQ ID NO: 13)),+ (+ = 0.5 to 1.5 relative activity over Rd3BB (SEQ ID NO: 13)),+ (+ = 0.5 to 1.5 relative activity over Rd3BB (SEQ ID NO: 13)),++ (++ = >1.5 to 2.5 relative activity over Rd3BB (SEQ ID NO: 13))
B13,++ (++ = >1.5 to 2.5 relative activity over Rd3BB (SEQ ID NO: 13)),+ (+ = 0.5 to 1.5 relative activity over Rd3BB (SEQ ID NO: 13)),++ (++ = >1.5 to 2.5 relative activity over Rd3BB (SEQ ID NO: 13)),++ (++ = >1.5 to 2.5 relative activity over Rd3BB (SEQ ID NO: 13))
